Reference: paper PMC12430012

Target: GST-α-synuclein, P37840
Assay: GST pull-down (glutathione agarose), western blot, ImageJ quantification
Settings: chain shown with the change; E. coli lysates, in vitro; parent: est. 1.0; read off a plot

ratio to parent	Binder
0.8	His6-DNAJB11 WT, Q9UBS4 T188A (protein) GRDFYKILGVPRSASIKDIKKAYRKLALQLHPDRNPDDPQAQEKFQDLGAAYEVLSDSEKRKQYDTYGEEGLKDGHQSSHGDIFSHFFGDFGFMFGGTPRQQDRNIPRGSDIIVDLEVTLEEVYAGNFVEVVRNKPVARQAPGKRKCNCRQEMRTTQLGPGRFQMAQEVVCDECPNVKLVNEERTLEVEIEPGVRDGMEYPFIGEGEPHVDGEPGDLRFRIKVVKHPIFERRGDDLYTNVTISLVESLVGFEMDITHLDGHKVHISRDKITRPGAKLWKKGEGLPNFDNNNIKGSLIITFDVDFPKEQLTEEAREGIKQLLKQGSVQKVYNGLQGY
4.9	His6-DNAJB11 WT, Q9UBS4 T188E (protein) GRDFYKILGVPRSASIKDIKKAYRKLALQLHPDRNPDDPQAQEKFQDLGAAYEVLSDSEKRKQYDTYGEEGLKDGHQSSHGDIFSHFFGDFGFMFGGTPRQQDRNIPRGSDIIVDLEVTLEEVYAGNFVEVVRNKPVARQAPGKRKCNCRQEMRTTQLGPGRFQMEQEVVCDECPNVKLVNEERTLEVEIEPGVRDGMEYPFIGEGEPHVDGEPGDLRFRIKVVKHPIFERRGDDLYTNVTISLVESLVGFEMDITHLDGHKVHISRDKITRPGAKLWKKGEGLPNFDNNNIKGSLIITFDVDFPKEQLTEEAREGIKQLLKQGSVQKVYNGLQGY
